Target: the molecule itself
Assay: cross-linking; His-TPI alone with 2 mM BS(PEG)5; 10 mM sodium phosphate pH 7.5, 100 mM NaCl, 10 mM MgCl2, RT, 30 min; SDS-PAGE

B1: C-terminal His-tagged triosephosphate isomerase from G. gallus (enzyme, UniProt P00940 1-248, looked up)
chain: MAPRKFFVGGNWKMNGDKKSLGELIHTLNGAKLSADTEVVCGAPSIYLDFARQKLDAKIGVAAQNCYKVPKGAFTGEISPAMIKDIGAAWVILGHSERRHVFGESDELIGQKVAHALAEGLGVIACIGEKLDEREAGITEKVVFEQTKAIADNVKDWSKVVLAYEPVWAIGTGKTATPQQAQEVHEKLRGWLKSHVSDAVAQSTRIIYGGSVTGGNCKELASQHDVDGFLVGGASLKPEFVDIINAKH
notes: Triosephosphate isomerase, G. gallus, 248 residues, as m1, with a C-terminal His tag; also called His-TPI; His-tagged TPI; source: E. coli BL21 (DE3), pET-21a(+)-His-TPI, purified (Ni-NTA); not shown: His tag, C-terminal, kept
  stoichiometry N: 2

Source: PMC11284791, “Ribosome External Electric Field Regulates Metabolic Enzyme Activity: The RAMBO Effect” (The Journal of Physical Chemistry. B, 2024)
